We go through one substance from patent US20170349667A1.

For the assay, the target named is human c-Met on cells (MKN-45, A549, HPAF, BxPC3) (human) (UniProt P08581). Briefly: cell-based or functional assay.
Chain of human c-Met on cells (MKN-45, A549, HPAF, BxPC3) (human) (P08581 25-1390): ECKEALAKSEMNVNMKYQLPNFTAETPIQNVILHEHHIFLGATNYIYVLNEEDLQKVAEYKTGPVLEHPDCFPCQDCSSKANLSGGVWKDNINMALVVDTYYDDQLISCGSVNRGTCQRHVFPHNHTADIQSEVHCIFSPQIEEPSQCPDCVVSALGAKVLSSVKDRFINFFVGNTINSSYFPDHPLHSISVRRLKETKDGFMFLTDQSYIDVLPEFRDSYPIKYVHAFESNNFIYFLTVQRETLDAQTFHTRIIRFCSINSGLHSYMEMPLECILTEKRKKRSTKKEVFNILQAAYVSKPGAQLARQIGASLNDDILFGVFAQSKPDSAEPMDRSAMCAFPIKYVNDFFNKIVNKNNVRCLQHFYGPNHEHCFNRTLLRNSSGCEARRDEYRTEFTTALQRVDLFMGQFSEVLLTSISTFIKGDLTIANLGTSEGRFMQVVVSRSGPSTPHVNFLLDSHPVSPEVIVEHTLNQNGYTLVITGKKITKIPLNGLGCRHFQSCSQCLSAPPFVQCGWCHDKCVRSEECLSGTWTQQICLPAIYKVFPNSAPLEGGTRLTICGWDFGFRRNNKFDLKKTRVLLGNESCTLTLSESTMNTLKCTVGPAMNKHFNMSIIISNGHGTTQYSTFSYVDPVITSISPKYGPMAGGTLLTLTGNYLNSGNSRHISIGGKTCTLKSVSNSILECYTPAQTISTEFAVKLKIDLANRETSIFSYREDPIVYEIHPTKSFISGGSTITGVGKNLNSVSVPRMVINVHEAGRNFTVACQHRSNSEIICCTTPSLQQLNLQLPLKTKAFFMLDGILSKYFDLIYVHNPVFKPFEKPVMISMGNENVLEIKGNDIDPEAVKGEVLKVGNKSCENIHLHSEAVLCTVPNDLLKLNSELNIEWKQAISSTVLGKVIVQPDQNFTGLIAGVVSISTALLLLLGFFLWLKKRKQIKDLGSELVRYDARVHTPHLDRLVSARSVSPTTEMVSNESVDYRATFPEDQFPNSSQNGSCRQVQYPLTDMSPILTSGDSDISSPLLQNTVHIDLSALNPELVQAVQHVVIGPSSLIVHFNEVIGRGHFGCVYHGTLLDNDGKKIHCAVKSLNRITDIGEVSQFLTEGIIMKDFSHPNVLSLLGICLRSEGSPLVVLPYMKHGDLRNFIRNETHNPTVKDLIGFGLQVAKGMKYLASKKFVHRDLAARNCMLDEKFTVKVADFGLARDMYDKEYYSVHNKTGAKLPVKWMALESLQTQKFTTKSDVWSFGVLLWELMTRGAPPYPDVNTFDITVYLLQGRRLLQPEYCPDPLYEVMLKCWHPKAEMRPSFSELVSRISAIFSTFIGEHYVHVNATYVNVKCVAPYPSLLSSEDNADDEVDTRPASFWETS

murine 5D5 antibody: the down-regulation of total c-Met on the surface of MKN-45 cells is 50 to 60%.
